# Results: the supplement of paper PMC9112550, “Optimization of the antimicrobial peptide Bac7 by deep mutational scanning” (BMC Biology, 2022)
# Tested on: Escherichia coli TOP10
# Experiment: shrunken log2 fold change of peptide-encoding DNA abundance (4.5 h post-induction vs induction); higher = less antimicrobial activity (less host growth inhibition)
# Settings: time post-induction: 4.5 h; library: site-saturation at positions 5, 18, 19, 20
# 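Also: peptides expressed intracellularly from a pBAD plasmid library in pooled LB shake-flask culture, induced with 0.3% L-arabinose, DNA abundance read by NGS, three biological replicates, DESeq2 with apeglm shrinkage.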
row,Sequence,shrunken log2 fold change
1,RRIRNRPPRLPRPRPRPLKTPRP,-0.0746
2,RRIRSRPPRLPRPRPRPCFAPRP,0.598
3,RRIRARPPRLPRPRPRPTIQPRP,0.0396
4,RRIRARPPRLPRPRPRPPWFPRP,0.36
5,RRIRDRPPRLPRPRPRPSLSPRP,-0.0503
6,RRIRERPPRLPRPRPRPRSEPRP,-0.0574
7,RRIRGRPPRLPRPRPRPAYPPRP,-0.0884
8,RRIRMRPPRLPRPRPRPRFGPRP,0.853
9,RRIRDRPPRLPRPRPRPYHYPRP,-0.688
10,RRIRSRPPRLPRPRPRPPVVPRP,0.473
11,RRIRERPPRLPRPRPRPPPKPRP,0.748
12,RRIRRRPPRLPRPRPRPLLDPRP,0.449
13,RRIRHRPPRLPRPRPRPYLPPRP,-0.618
14,RRIRNRPPRLPRPRPRPNWQPRP,-0.123
15,RRIRIRPPRLPRPRPRPVKEPRP,-0.0496
16,RRIRGRPPRLPRPRPRPSKHPRP,-0.0347
17,RRIRVRPPRLPRPRPRPFPQPRP,-0.312
18,RRIRYRPPRLPRPRPRPGSFPRP,-0.0331
19,RRIRVRPPRLPRPRPRPIIEPRP,-0.087
20,RRIRQRPPRLPRPRPRPIKAPRP,0.00249
21,RRIRTRPPRLPRPRPRPCPGPRP,-0.232
22,RRIRTRPPRLPRPRPRPSEAPRP,0.0182
23,RRIRLRPPRLPRPRPRPILWPRP,-0.0294
24,RRIRTRPPRLPRPRPRPGYHPRP,-0.315
25,RRIRARPPRLPRPRPRPLKPPRP,0.464

row,Sequence,shrunken log2 fold change
1,RRIRLRPPRLPRPRPRPPMCPRP,0.202
2,RRIRDRPPRLPRPRPRPQTWPRP,-0.109
3,RRIRWRPPRLPRPRPRPPGGPRP,0.669
4,RRIRRRPPRLPRPRPRPEHQPRP,0.25
5,RRIRKRPPRLPRPRPRPNNHPRP,-0.469
6,RRIRLRPPRLPRPRPRPGWIPRP,0.0964
7,RRIRKRPPRLPRPRPRPGCCPRP,0.722
8,RRIRPRPPRLPRPRPRPSHKPRP,-0.0374
9,RRIRIRPPRLPRPRPRPCKHPRP,-0.118
10,RRIRCRPPRLPRPRPRPSDPPRP,-0.317
11,RRIRLRPPRLPRPRPRPFANPRP,0.0335
12,RRIRIRPPRLPRPRPRPHDPPRP,-0.296
13,RRIRSRPPRLPRPRPRPIPQPRP,-0.402
14,RRIRERPPRLPRPRPRPSFNPRP,-0.637
15,RRIRSRPPRLPRPRPRPEHLPRP,-0.258
16,RRIRYRPPRLPRPRPRPILVPRP,-0.237
17,RRIRVRPPRLPRPRPRPWDMPRP,-0.184
18,RRIRARPPRLPRPRPRPMAQPRP,0.23
19,RRIRWRPPRLPRPRPRPYWPPRP,-0.022
20,RRIRRRPPRLPRPRPRPIIVPRP,0.0931
21,RRIRVRPPRLPRPRPRPTGHPRP,0.0149
22,RRIRCRPPRLPRPRPRPYESPRP,0.0203
23,RRIRERPPRLPRPRPRPCMNPRP,-0.341
24,RRIRIRPPRLPRPRPRPVCPPRP,-0.0123
25,RRIRLRPPRLPRPRPRPYDNPRP,-1.57

row,Sequence,shrunken log2 fold change
1,RRIRVRPPRLPRPRPRPEYWPRP,-0.161
2,RRIRSRPPRLPRPRPRPRHPPRP,0.215
3,RRIRDRPPRLPRPRPRPNLKPRP,0.114
4,RRIRHRPPRLPRPRPRPFDTPRP,-0.178
5,RRIRVRPPRLPRPRPRPGLGPRP,0.134
6,RRIRVRPPRLPRPRPRPTCLPRP,0.332
7,RRIRDRPPRLPRPRPRPWHFPRP,-0.01
8,RRIRNRPPRLPRPRPRPVGDPRP,0.0156
9,RRIRVRPPRLPRPRPRPMREPRP,0.689
10,RRIRYRPPRLPRPRPRPAFRPRP,-0.287
11,RRIRHRPPRLPRPRPRPSYYPRP,-1.56
12,RRIRARPPRLPRPRPRPPPCPRP,0.979
13,RRIRQRPPRLPRPRPRPKWIPRP,-0.0524
14,RRIRMRPPRLPRPRPRPIGQPRP,0.00911
15,RRIRDRPPRLPRPRPRPDVRPRP,0.0212
16,RRIRGRPPRLPRPRPRPMCLPRP,0.0563
17,RRIRQRPPRLPRPRPRPVQVPRP,-0.0564
18,RRIRLRPPRLPRPRPRPKHRPRP,-0.112
19,RRIRNRPPRLPRPRPRPDPPPRP,0.143
20,RRIRTRPPRLPRPRPRPKLDPRP,0.2
21,RRIRDRPPRLPRPRPRPQTHPRP,0.269
22,RRIRWRPPRLPRPRPRPYLHPRP,-0.639
23,RRIRCRPPRLPRPRPRPMENPRP,0.0267
24,RRIRERPPRLPRPRPRPRAVPRP,0.264
25,RRIRARPPRLPRPRPRPQFPPRP,0.0321

row,Sequence,shrunken log2 fold change
1,RRIRRRPPRLPRPRPRPRSLPRP,-0.0226
2,RRIRMRPPRLPRPRPRPYNKPRP,-0.561
3,RRIRMRPPRLPRPRPRPNYPPRP,-0.445
4,RRIRWRPPRLPRPRPRPIIAPRP,0.00853
5,RRIRWRPPRLPRPRPRPVTQPRP,-0.0775
6,RRIRDRPPRLPRPRPRPWVRPRP,-0.21
7,RRIRWRPPRLPRPRPRPHNNPRP,-0.749
8,RRIRRRPPRLPRPRPRPPHQPRP,1.32
9,RRIRVRPPRLPRPRPRPMLFPRP,-0.329
10,RRIRYRPPRLPRPRPRPEVSPRP,-0.117
11,RRIRARPPRLPRPRPRPYETPRP,-0.0398
12,RRIRQRPPRLPRPRPRPWNPPRP,-0.0759
13,RRIRMRPPRLPRPRPRPFNEPRP,-0.488
14,RRIRDRPPRLPRPRPRPFVQPRP,-0.194
15,RRIRRRPPRLPRPRPRPSVNPRP,-0.308
16,RRIRSRPPRLPRPRPRPVTCPRP,-0.299
17,RRIRRRPPRLPRPRPRPWVHPRP,0.000557
18,RRIRCRPPRLPRPRPRPCHWPRP,0.0101
19,RRIRIRPPRLPRPRPRPTGVPRP,0.039
20,RRIRARPPRLPRPRPRPEFVPRP,1.05
21,RRIRRRPPRLPRPRPRPWTSPRP,-0.0576
22,RRIRHRPPRLPRPRPRPPWWPRP,0.18
23,RRIRGRPPRLPRPRPRPVPTPRP,0.865
24,RRIRYRPPRLPRPRPRPGNDPRP,-0.356
25,RRIRCRPPRLPRPRPRPWCSPRP,-0.321

row,Sequence,shrunken log2 fold change
1,RRIRSRPPRLPRPRPRPYVFPRP,-0.545
2,RRIRFRPPRLPRPRPRPVRIPRP,-0.0436
3,RRIRCRPPRLPRPRPRPLGMPRP,-0.433
4,RRIRKRPPRLPRPRPRPLVRPRP,0.114
5,RRIRGRPPRLPRPRPRPRPLPRP,0.902
6,RRIRNRPPRLPRPRPRPPKLPRP,0.0789
7,RRIRHRPPRLPRPRPRPGQLPRP,0.174
8,RRIRWRPPRLPRPRPRPGRWPRP,0.742
9,RRIRSRPPRLPRPRPRPQCVPRP,-0.204
10,RRIRPRPPRLPRPRPRPAHKPRP,-0.46
11,RRIRIRPPRLPRPRPRPGDNPRP,-0.317
12,RRIRWRPPRLPRPRPRPPCFPRP,0.108
13,RRIRSRPPRLPRPRPRPAMDPRP,0.0404
14,RRIRVRPPRLPRPRPRPNRDPRP,-0.0911
15,RRIRERPPRLPRPRPRPHEDPRP,0.111
16,RRIRSRPPRLPRPRPRPCLIPRP,-0.197
17,RRIRKRPPRLPRPRPRPPMAPRP,0.41
18,RRIRERPPRLPRPRPRPMDDPRP,-0.015
19,RRIRVRPPRLPRPRPRPNAFPRP,-0.0289
20,RRIRTRPPRLPRPRPRPPLIPRP,0.0432
21,RRIRNRPPRLPRPRPRPGKYPRP,-0.117
22,RRIRCRPPRLPRPRPRPTNRPRP,-0.356
23,RRIRMRPPRLPRPRPRPHTFPRP,-0.384
24,RRIRVRPPRLPRPRPRPEDSPRP,0.0654
25,RRIRNRPPRLPRPRPRPGHPPRP,-0.0813

row,Sequence,shrunken log2 fold change
1,RRIRFRPPRLPRPRPRPGESPRP,-0.00672
2,RRIRGRPPRLPRPRPRPLQFPRP,0.312
3,RRIRWRPPRLPRPRPRPCFEPRP,-0.0254
4,RRIRKRPPRLPRPRPRPPCAPRP,0.804
5,RRIRFRPPRLPRPRPRPSKRPRP,-0.565
6,RRIRRRPPRLPRPRPRPRFKPRP,0.0822
7,RRIRVRPPRLPRPRPRPCLPPRP,-0.219
8,RRIRVRPPRLPRPRPRPWQPPRP,0.146
9,RRIRFRPPRLPRPRPRPVHFPRP,-0.263
10,RRIRCRPPRLPRPRPRPIPMPRP,-0.108
11,RRIRWRPPRLPRPRPRPWNTPRP,-0.195
12,RRIRPRPPRLPRPRPRPWLPPRP,-0.0294
13,RRIRVRPPRLPRPRPRPNIIPRP,-0.303
14,RRIRVRPPRLPRPRPRPYNDPRP,-0.609
15,RRIRSRPPRLPRPRPRPVLSPRP,0.0825
16,RRIRKRPPRLPRPRPRPDRCPRP,0.00281
17,RRIRMRPPRLPRPRPRPHNDPRP,0.00915
18,RRIRKRPPRLPRPRPRPQVPPRP,0.325
19,RRIRARPPRLPRPRPRPEDHPRP,0.392
20,RRIRYRPPRLPRPRPRPAIIPRP,-0.244
21,RRIRFRPPRLPRPRPRPCAVPRP,-0.46
22,RRIRVRPPRLPRPRPRPSFGPRP,-0.463
23,RRIRTRPPRLPRPRPRPSQPPRP,-0.16
24,RRIRPRPPRLPRPRPRPTVHPRP,-0.0233
25,RRIRHRPPRLPRPRPRPQTGPRP,-0.169
